In publication PMC12015630:

Target: LmrR_V15aY
Test: SEC; purified LmrR_V15aY after affinity chromatography; conditions not shown (Fig. S2, ESI)

stoichiometry N: 2
Substance: LmrR_V15aY (enzyme)
